Earlier results in patent US20200069786A1, “COMPOSITION AND PROCESS FOR PREPARING VACCINE” (TREOS BIO ZRT., priority 2018, published 2020).
Like-named read-outs stand apart in the source and are kept apart here.

Test system: TSA
[1] = TSA expression rate in MELANOMA
[2] = TSA expression rate in BLADDER cancer
[3] = TSA expression rate in Cervical cancer
[4] = TSA expression rate in HEAD and NECK

B1: gp100 (protein, UniProt P40967 25-661, looked up)
Melanocyte protein PMEL: KVPRNQDWLGVSRQLRTKAWNRQLYPEWTEAQRLDCWRGGQVSLKVSNDGPTLIGANASFSIALNFPGSQKVLPDGQVIWVNNTIINGSQVWGGQPVYPQETDDACIFPDGGPCPSGSWSQKRSFVYVWKTWGQYWQVLGGPVSGLSIGTGRAMLGTHTMEVTVYHRRGSRSYVPLAHSSSAFTITDQVPFSVSVSQLRALDGGNKHFLRNQPLTFALQLHDPSGYLAEADLSYTWDFGDSSGTLISRALVVTHTYLEPGPVTAQVVLQAAIPLTSCGSSPVPGTTDGHRPTAEAPNTTAGQVPTTEVVGTTPGQAPTAEPSGTTSVQVPTTEVISTAPVQMPTAESTGMTPEKVPVSEVMGTTLAEMSTPEATGMTPAEVSIVVLSGTTAAQVTTTEWVETTARELPIPEPEGPDASSIMSTESITGSLGPLLDGTATLRLVKRQVPLDCVLYRYGSFSVTLDIVQGIESAEILQAVPSGEGDAFELTVSCQGGLPKEACMEISSPGCQPPAQRLCQPVLPSPACQLVLHQILKGGSGTYCLNVSLADTNSLAVVSTQLIMPGQEAGLGQVPLIVGILLVLMAVVLASLIYRRRLMKQDFSVPQLPHSSSHWLRLPRIFCSCPIGENSPLLSGQQV
- TSA Expression Rate (ER) (BRAIN): 85%
- Expression Rate (ER) % [1]: 82%

B2: MAGE-A1l (protein, UniProt P43364 1-429, looked up)
Melanoma-associated antigen 11: METQFRRGGLGCSPASIKRKKKREDSGDFGLQVSTMFSEDDFQSTERAPYGPQLQWSQDLPRVQVFREQANLEDRSPRRTQRITGGEQVLWGPITQIFPTVRPADLTRVIMPLEQRSQHCKPEEGLQAQEEDLGLVGAQALQAEEQEAAFFSSTLNVGTLEELPAAESPSPPQSPQEESFSPTAMDAIFGSLSDEGSGSQEKEGPSTSPDLIDPESFSQDILHDKIIDLVHLLLRKYRVKGLITKAEMLGSVIKNYEDYFPEIFREASVCMQLLFGIDVKEVDPTSHSYVLVTSLNLSYDGIQCNEQSMPKSGLLIIVLGVIFMEGNCIPEEVMWEVLSIMGVYAGREHFLFGEPKRLLTQNWVQEKYLVYRQVPGTDPACYEFLWGPRAHAETSKMKVLEYIANANGRDPTSYPSLYEDALREEGEGV
- TSA Expression Rate (ER) (BRAIN): 85%

B3: PIWIL2 (protein, UniProt Q8TC59 1-973, looked up)
Piwi-like protein 2: MDPFRPSFRGQSPIHPSQCQAVRMPGCWPQASKPLDPALGRGAPAGRGHVFGKPEEPSTQRGPAQRESVGLVSMFRGLGIETVSKTPLKREMLPSGRGILGRGLSANLVRKDREELSPTFWDPKVLAAGDSKMAETSVGWSRTLGRGSSDASLLPLGRAAGGISREVDKPPCTFSTPSRGPPQLSSPPALPQSPLHSPDRPLVLTVEHKEKELIVKQGSKGTPQSLGLNLVKIQCHNEAVYQYHVTFSPNVECKSMRFGMLKDHQAVTGNVTAFDGSILYLPVKLQQVLELKSQRKTDSAEISIKIQMTKILEPCSDLCIPFYNVVFRRVMKLLDMKLVGRNFYDPTSAMVLQQHRLQIWPGYAASIRRTDGGLFLLADVSHKVIRNDCVLDVMHAIYQQNKEHFQDECTKLLVGNIVITRYNNRTYRIDDVDWNKTPKDSFTMSDGKEITFLEYYSKNYGITVKEEDQPLLIHRPSERQDNHGMLLKGEILLLPELSFMTGIPEKMKKDFRAMKDLAQQINLSPKQHHSALECLLQRIAKNEAATNELMRWGLRLQKDVHKIEGRVLPMERINLKNTSFITSQELNWVKEVTRDPSILTIPMHFWALFYPKRAMDQARELVNMLEKIAGPIGMRMSPPAWVELKDDRIETYVRTIQSTLGAEGKIQMVVCIIMGPRDDLYGAIKKLCCVQSPVPSQVVNVRTIGQPTRLRSVAQKILLQINCKLGGELWGVDIPLKQLMVIGMDVYHDPSRGMRSVVGFVASINLTLTKWYSRVVFQMPHQEIVDSLKLCLVGSLKKFYEVNHCLPEKIVVYRDGVSDGQLKTVANYEIPQLQKCFEAFENYQPKMVVFVVQKKISTNLYLAAPQNFVTPTPGTVVDHTITSCEWVDFYLLAHHVRQGCGIPTHYVCVLNTANLSPDHMQRLTFKLCHMYWNWPGTIRVPAPCKYAHKLAFLSGHILHHEPAIQLCENLFFL
- TSA Expression Rate (ER) (BRAIN): 64%
- TSA Expression Rate (ER) (BREAST): 94%
- TSA Expression Rate (ER) (LUNG): 66%
- TSA Expression Rate (ER) (OVARIAN): 61%
- TSA Expression Rate (ER) (THYROID): 88%
- Expression Rate (ER) % [2]: 82%
- Expression Rate (ER) % (TSA expression rate in CRC): 80%
- Expression Rate (ER) % [3]: 100%
- Expression Rate (ER) % (TSA expression rate in Kidney): 49%
- Expression Rate (ER) % (TSA expression rate in PROSTATE cancer): 100%

B4: XAGE-3 (protein, UniProt Q8WTP9 1-111, looked up)
X antigen family member 3: MIWRGRSTYRPRPRRSVPPPELIGPMLEPGDEEPQQEEPPTESRDPAPGQEREEDQGAAETQVPDLEADLQELSQSKTGGECGNGPDDQGKILPKSEQFKMPEGGDRQPQV
- TSA Expression Rate (ER) (BRAIN): 60%
- Expression Rate (ER) % [4]: 12%
- Expression Rate (ER) % [1]: 0%

B5: SPAG9 (protein, UniProt O60271 1-1321, looked up)
C-Jun-amino-terminal …: MELEDGVVYQEEPGGSGAVMSERVSGLAGSIYREFERLIGRYDEEVVKELMPLVVAVLENLDSVFAQDQEHQVELELLRDDNEQLITQYEREKALRKHAEEKFIEFEDSQEQEKKDLQTRVESLESQTRQLELKAKNYADQISRLEEREAELKKEYNALHQRHTEMIHNYMEHLERTKLHQLSGSDQLESTAHSRIRKERPISLGIFPLPAGDGLLTPDAQKGGETPGSEQWKFQELSQPRSHTSLKVSNSPEPQKAVEQEDELSDVSQGGSKATTPASTANSDVATIPTDTPLKEENEGFVKVTDAPNKSEISKHIEVQVAQETRNVSTGSAENEEKSEVQAIIESTPELDMDKDLSGYKGSSTPTKGIENKAFDRNTESLFEELSSAGSGLIGDVDEGADLLGMGREVENLILENTQLLETKNALNIVKNDLIAKVDELTCEKDVLQGELEAVKQAKLKLEEKNRELEEELRKARAEAEDARQKAKDDDDSDIPTAQRKRFTRVEMARVLMERNQYKERLMELQEAVRWTEMIRASRENPAMQEKKRSSIWQFFSRLFSSSSNTTKKPEPPVNLKYNAPTSHVTPSVKKRSSTLSQLPGDKSKAFDFLSEETEASLASRREQKREQYRQVKAHVQKEDGRVQAFGWSLPQKYKQVTNGQGENKMKNLPVPVYLRPLDEKDTSMKLWCAVGVNLSGGKTRDGGSVVGASVFYKDVAGLDTEGSKQRSASQSSLDKLDQELKEQQKELKNQEELSSLVWICTSTHSATKVLIIDAVQPGNILDSFTVCNSHVLCIASVPGARETDYPAGEDLSESGQVDKASLCGSMTSNSSAETDSLLGGITVVGCSAEGVTGAATSPSTNGASPVMDKPPEMEAENSEVDENVPTAEEATEATEGNAGSAEDTVDISQTGVYTEHVFTDPLGVQIPEDLSPVYQSSNDSDAYKDQISVLPNEQDLVREEAQKMSSLLPTMWLGAQNGCLYVHSSVAQWRKCLHSIKLKDSILSIVHVKGIVLVALADGTLAIFHRGVDGQWDLSNYHLLDLGRPHHSIRCMTVVHDKVWCGYRNKIYVVQPKAMKIEKSFDAHPRKESQVRQLAWVGDGVWVSIRLDSTLRLYHAHTYQHLQDVDIEPYVSKMLGTGKLGFSFVRITALMVSCNRLWVGTGNGVIISIPLTETNKTSGVPGNRPGSVIRVYGDENSDKVTPGTFIPYCSMAHAQLCFHGHRDAVKFFVAVPGQVISPQSSSSGTDLTGDKAGPSAQEPGSQTPLKSMLVISGGEGYIDFRMGDEGGESELLGEDLPLEPSVTKAERSHLIVWQVMYGNE
- TSA Expression Rate (ER) (BRAIN): 60%
- TSA Expression Rate (ER) (BREAST): 88%
- TSA Expression Rate (ER) (HCC): 52%
- TSA Expression Rate (ER) (LUNG): 56%
- TSA Expression Rate (ER) (OVARIAN): 90%
- TSA Expression Rate (ER) (THYROID): 78%
- Expression Rate (ER) % [2]: 81%
- Expression Rate (ER) % (TSA expression rate in CRC): 71%
- Expression Rate (ER) % [3]: 82%
- Expression Rate (ER) % (TSA expression rate in Kidney): 88%
- Expression Rate (ER) % (TSA expression rate in LEUKEMIAS): 100%

B6: PEPP2 (protein, UniProt Q9BQY4 1-288, looked up)
Rhox homeobox family member 2: MEPPDQCSQYMTSLLSPAVDDEKELQDMNAMVLSLTEEVKEEEEDAQPEPEQGTAAGEKLKSAGAQGGEEKDGGGEEKDGGGAGVPGHLWEGDLEGTSGSDGNVEDSDQSEKEPGQQYSRPQGAVGGLEPGNAQQPNVHAFTPLQLQELERIFQREQFPSEFLRRRLARSMNVTELAVQIWFENRRAKWRRHQRALMARNMLPFMAVGQPVMVTAAEAITAPLFISGMRDDYFWDHSHSSSLCFPMPPFPPPSLPLPLMLLPPMPPAGQAEFGPFPFVIVPSFTFPNV
- TSA Expression Rate (ER) (BREAST): 60%

B7: ACTL8 (protein, UniProt Q9H568 1-366, looked up)
Actin-like protein 8: MAARTVIIDHGSGFLKAGTAGWNEPQMVFPNIVNYLPCKENPGPSYARRRVSLGIDICHPDTFSYPIERGRILNWEGVQYLWSFVLENHRREQEVPPVIITETPLREPADRKKMLEILFELLHVPSVLLADQLQMSLYASGLLTGVVVDSGYGLTRVQPFHQGRPLPASGKTLEFAGQDLSAYLLKSLFKEDCDRRCLFQLETVAVTQMNKCYVPQNLGEALDFRERQQSALDESNTYQLPDGSRVELTPMQRVAPEMFFSPQVFEQPGPSIPRAIVESVESCEISLRPLLVSHVMACGGNTLYPGFTKRLFRELMGDHVSSTKATVWEGSNRNFSVWLGASVVAHLSTYQSEWMSREEYGEHMRM
- TSA Expression Rate (ER) (BRAIN): 54%

B8: GAGE-1 (protein, UniProt P0DTW1 1-117, looked up)
G antigen 1: MSWRGRSTYYWPRPRRYVQPPEMIGPMRPEQFSDEVEPATPEEGEPATQRQDPAAAQEGEDEGASAGQGPKPEADSQEQGHPQTGCECEDGPDGQEMDPPNPEEVKTPEEGEGQSQC
- TSA Expression Rate (ER) (BRAIN): 42%
- Expression Rate (ER) % [4]: 39%

B9: MAGE-A11 (protein, UniProt P43364 1-429, looked up)
Melanoma-associated antigen 11: B2 Melanoma-associated antigen 11
- TSA Expression Rate (ER) (BREAST): 59%
- TSA Expression Rate (ER) (HCC): 36%
- Expression Rate (ER) % [4]: 37%
- Expression Rate (ER) % [1]: 54%
